Results on seven molecules are retold here after PMC8100106, “Selection of a picomolar antibody that targets CXCR2-mediated neutrophil activation and alleviates EAE symptoms” (Nature Communications, 2021).

For assay [1], the target named is T1, pepN48, first 48 residues of the extracellular N-terminus of hCXCR2 (Homo sapiens, biotin on the N-terminus).
T1 construct: human CXC chemokine receptor 2 (CXCR2), first 48 residues; also called CXCR2 N-terminal peptide; source: synthetic peptide (Chinese Peptide)
T1 chain: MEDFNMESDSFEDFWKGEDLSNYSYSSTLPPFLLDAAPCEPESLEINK
Kind of assay: SPR; biotinylated pepN48 loaded on streptavidin chip (Series S Sensor Chip SA), antibody flowed over, Biacore T200, HBS-EP+ buffer pH 7.4. Conditions: both partners purified.

Assay [2] addresses T2, pepN48, peptide of the first 48 residues of the extracellular N-terminus of hCXCR2 (Homo sapiens, biotin labeled on its N-terminus).
T2 construct: human CXC chemokine receptor 2 (CXCR2), first 48 residues; a blank before the last K in the print was removed; also called CXCR2 N-terminal peptide; source: synthetic peptide (Chinese Peptide, Hangzhou)
T2 chain: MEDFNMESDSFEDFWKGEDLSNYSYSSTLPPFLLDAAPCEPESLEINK
Kind of assay: SPR; biotinylated pepN48 loaded on a streptavidin Series S Sensor Chip SA; antibody flowed; Biacore T200; HBS-EP+ buffer pH 7.4. Conditions: both partners purified.

Assay [3] deals with T3, human CXCR2 (hCXCR2)-mCherry fusion protein on U2OS cells (human, UniProt P25025).
T3 construct: human CXC chemokine receptor 2 (CXCR2); Also used here as the target of the functional rows, whose cells (Tango CXCR2-bla U2OS; CHO with hCXCR2 and Gα16; U2OS overexpressing hCXCR2) carry other hCXCR2 constructs; also called CXC chemokine receptor 2; source: U2OS, transiently overexpressed, on cells
As to the kind of experiment: flow cytometry on cells; cellular supernatants with scFv-Fc on U2OS cells with membrane-bound hCXCR2-mCherry. The settings on record: partners not purified.

In assay [4] the target is T4, pepN9-19, 9-19 amino acid peptide of hCXCR2 (human).
T4 construct: human CXCR2 residues 9-19; source: synthetic peptide (Sangon Biotech) for crystallography
T4 chain: DSFEDFWKGED
Kind of assay: crystal structure; Fab mixed with pepN9-19 at a molar ratio of 1:3; hanging drop vapor diffusion, 18 °C. The settings on record: both partners purified.

Assay [5] has as its target T3, human CXCR2 (hCXCR2)-mCherry fusion …. As to the kind of experiment: cell-based or functional assay.
Assay [6] deals with T5, macaque CXCR2 (mcCXCR2-mCherry) on U2OS cells (Macaca mulatta (macaque species not …, UniProt A0A5F7ZQV3)).
T5 construct: macaque CXCR2; also called macaque monkey CXCR2; source: U2OS, transiently overexpressed, on cells
As to the kind of experiment: flow cytometry on cells; U2OS cells transiently overexpressing receptor-mCherry; 2 μg mL^−1 antibody in FACS buffer (0.5% BSA in PBS pH 7.4, 2 mM EDTA), 4 °C, 15 min; Alexa Fluor 488 anti-human IgG. Conditions: one partner purified.

In assay [7] the target is T3, human CXCR2 (hCXCR2)-mCherry fusion …. Kind of assay: immunostaining of cells or tissue; U2OS cells overexpressing receptor-mCherry, fixed with 4% paraformaldehyde; 2 μg mL^−1 antibody at 4 °C overnight; Alexa Fluor 488 anti-human IgG; confocal microscopy. Conditions: one partner purified.

T5 sequence (Q28519 whole entry): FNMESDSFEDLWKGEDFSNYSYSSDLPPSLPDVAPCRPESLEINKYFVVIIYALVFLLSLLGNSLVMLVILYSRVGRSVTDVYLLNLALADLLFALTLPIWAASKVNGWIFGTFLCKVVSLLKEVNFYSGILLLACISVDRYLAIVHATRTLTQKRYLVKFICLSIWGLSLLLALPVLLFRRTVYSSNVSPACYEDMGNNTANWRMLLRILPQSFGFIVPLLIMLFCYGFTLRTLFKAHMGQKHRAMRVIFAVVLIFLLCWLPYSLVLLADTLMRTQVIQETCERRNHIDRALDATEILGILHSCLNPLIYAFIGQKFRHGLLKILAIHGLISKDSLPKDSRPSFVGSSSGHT

B1: abN48-IgG1 (antibody, V domains shown)
VH: QVQLVQSGAEVKKPGSSVKVSCKASGGTLSSYAISWVRQAPGQGPEWMGWINPNSGGTNYAQKFQGRVTMTRDTSISTAYMELSRLRPDDTAVYYCASGYCSSTSCYDYWGQGTLVTVSS
VL: QAVLTQPSSLSASPGASVSLTCTLRSGINVGAYRIYWYQQKPGSPPQFLLRYKSDSDKQQGSGVPSRFSGSRDASANAGILLISGLRSEDEADYYCAIWHSSAWVFGGGTQLTVL
notes: VH of abN48 (from the scFv H8); complete constant domains of the IgG1 heavy chain; VL of abN48 on a complete light chain constant domain (lambda type is said of abN48-2-IgG1); IgG1; made from the scFv abN48 (H8); source: HEK293F, co-transfected heavy and light chain plasmids, purified (Protein A)
As to B1, in assay [1], the off-rate constant (koff) amounted to 0.00035 s⁻¹ and the kon was 350000 M⁻¹ s⁻¹.

B2: H8 (abN48) scFv antibody (scFv, V domains shown)
VH: QVQLVQSGAEVKKPGSSVKVSCKASGGTLSSYAISWVRQAPGQGPEWMGWINPNSGGTNYAQKFQGRVTMTRDTSISTAYMELSRLRPDDTAVYYCASGYCSSTSCYDYWGQGTLVTVSS
VL: QAVLTQPSSLSASPGASVSLTCTLRSGINVGAYRIYWYQQKPGSPPQFLLRYKSDSDKQQGSGVPSRFSGSRDASANAGILLISGLRSEDEADYYCAIWHSSAWVFGGGTQLTVL
notes: VH and VL as in the abN48 Fab of PDB 6KVF; Expressed as scFv-Fc with the entire Fc domain of human IgG1 (pFuse, InvivoGen pfuse-hg1fc2); also called scFv-Fc; source: HEK293F, transfected (pFuse vector); in cellular supernatant, and purified (HiTrap Protein A)
In assay [2], B2 had a Kd of 2.6 nM. In assay [3], the binding result is “binds”.

B3: abN48-2 Fab (Fab, V domains shown)
VH: QVQLVQSGAEVKKPGSSVKVSCKASGGTLSSYAISWVRQAPGQGPEWMGWINPNSGGTNYAQKFQGRVTMTRDTSISTAYMELSRLRPDDTAVYYCASGYCSRTRCYDYWGQGTLVTVSS
VL: QAVLTQPSSLSASPGASVSLTCTLRSGINVGAYRIYWYQQKPGSPPQFLLRYKSDSDKQQGSGVPSRFSGSRDASANAGILLISGLRSEDEADYYCAIWHSSAWVFGGGTQLTVL
notes: Fab heavy chain of abN48-2; VH equals that of m2 (PDB 6KVF) with Ser99 to Arg99 and Ser100A to Arg100A (Kabat numbering); lambda light chain; as the light chain of m3; source: papain cleavage of abN48-2-IgG1, purified (HiTrap lambda HP, Superdex200 increase)
Turning to B3, in assay [4], the binding result was “binds”.

B4: abN48-2-IgG1 (antibody, V domains shown)
VH: QVQLVQSGAEVKKPGSSVKVSCKASGGTLSSYAISWVRQAPGQGPEWMGWINPNSGGTNYAQKFQGRVTMTRDTSISTAYMELSRLRPDDTAVYYCASGYCSRTRCYDYWGQGTLVTVSS
VL: QAVLTQPSSLSASPGASVSLTCTLRSGINVGAYRIYWYQQKPGSPPQFLLRYKSDSDKQQGSGVPSRFSGSRDASANAGILLISGLRSEDEADYYCAIWHSSAWVFGGGTQLTVL
notes: VH of abN48-2; equals the VH of m2 (PDB 6KVF) with Ser99 to Arg99 and Ser100A to Arg100A in H-CDR3 (Kabat numbering); complete constant domains of human IgG1 heavy chain; whole lambda light chain; as the light chain of m2; Full-length IgG1, lambda type; also called ab48-2-IgG1; AbN4-2-IgG1; source: HEK293T (results) or HEK293F (methods), transfected, purified (HiTrap Protein A)
Regarding B4, the “partial agonist effect on Ca^2+ influx at high concentration (10–1000 nM), FLIPR, apparent EC50” value in assay [5] worked out at 310 nM. For the same molecule, the affinity in assay [2], expressed as Kd, was 0.0072 nM. In assay [6], the binding result is “binds”.

B5: abN48-IgG1 (antibody, V domains shown)
VH: QVQLVQSGAEVKKPGSSVKVSCKASGGTLSSYAISWVRQAPGQGPEWMGWINPNSGGTNYAQKFQGRVTMTRDTSISTAYMELSRLRPDDTAVYYCASGYCSSTSCYDYWGQGTLVTVSS
VL: QAVLTQPSSLSASPGASVSLTCTLRSGINVGAYRIYWYQQKPGSPPQFLLRYKSDSDKQQGSGVPSRFSGSRDASANAGILLISGLRSEDEADYYCAIWHSSAWVFGGGTQLTVL
notes: VH of abN48; complete constant domains of human IgG1 heavy chain; whole light chain of abN48 (VL and CL); Full-length IgG1; source: HEK293F, co-transfected heavy and light chain plasmids, purified (HiTrap Protein A)
For the molecule B5, the binding result in assay [7] and in assay [6] was “binds” each time. For the same molecule, the affinity in assay [2], expressed as Kd, was 0.78 nM.

B6: abN48-2-IgG1 (antibody, V domains shown)
VH: QVQLVQSGAEVKKPGSSVKVSCKASGGTLSSYAISWVRQAPGQGPEWMGWINPNSGGTNYAQKFQGRVTMTRDTSISTAYMELSRLRPDDTAVYYCASGYCSRTRCYDYWGQGTLVTVSS
VL: QAVLTQPSSLSASPGASVSLTCTLRSGINVGAYRIYWYQQKPGSPPQFLLRYKSDSDKQQGSGVPSRFSGSRDASANAGILLISGLRSEDEADYYCAIWHSSAWVFGGGTQLTVL
notes: VH as the heavy chain of Dm1 with two changes in H-CDR3 (Kabat numbering); complete constant domains of the IgG1 heavy chain; as the light chain of Dm1 (lambda type); IgG1, lambda; also called H8-2
Turning to B6, in assay [1], the koff worked out at 1.7e-05 s⁻¹ and the association rate constant (kon) came out at 940000 M⁻¹ s⁻¹.

B7: abN48 Fab (Fab, V domains shown)
VH: QVQLVQSGAEVKKPGSSVKVSCKASGGTLSSYAISWVRQAPGQGPEWMGWINPNSGGTNYAQKFQGRVTMTRDTSISTAYMELSRLRPDDTAVYYCASGYCSSTSCYDYWGQGTLVTVSS
VL: QAVLTQPSSLSASPGASVSLTCTLRSGINVGAYRIYWYQQKPGSPPQFLLRYKSDSDKQQGSGVPSRFSGSRDASANAGILLISGLRSEDEADYYCAIWHSSAWVFGGGTQLTVL
notes: Fab heavy chain of abN48; light chain of abN48; as the light chain of m2; source: Fab made following a similar protocol as for abN48-2 Fab (papain cleavage of the IgG1, purified)
For the molecule B7, the binding result in assay [4] is on record as “binds”.
